Target: S3–4 single-chain TCR variant (scTv) of the A6 TCR
Experiment: SPR

## Tax P6A variant presented by HLA-A2 (from UniProt P61769) (peptide-MHC)
  Kd: 5 µM

From article PMC7642186
